Measurements taken from paper PMC3750193, “Disassembly of All SNARE Complexes by N-Ethylmaleimide-sensitive Factor (NSF) Is Initiated by a Conserved 1:1 Interaction between α-Soluble NSF Attachment Protein (SNAP) and SNARE Complex*^([image sbox.jpg])” (The Journal of Biological Chemistry, 2013).

Assays:
Experiment in all cases: other fluorescence titration; change in Oregon Green 488 fluorescence intensity of the labeled SNARE complex as a function of α-SNAP concentration; fit y = Fmax·x/(KD + x); three independent experiments
[1] = molecular target: all four ternary SNARE complexes
[2] = molecular target: T1, VAMP7-syntaxin4-SNAP23 ternary SNARE complex, labeled with Oregon Green 488 (rat, UniProt Q9JHW5 1-190; Q08850 1-274; O70377 1-210, C21S | C56V | C141S | E257C | I261C, Oregon Green 488 (maleimide) on cysteines; the labeled endogenous and mutant cysteines are shown in Figure 1A); details: both partners purified
T1 construct: VAMP7, rat, residues 1-190; syntaxin4A, rat, residues 1-274; tag-free; SNAP23, rat; Removal of the His6 tag is told only for α-SNAP; also called VAMP7(1–190)-C21S/C56V-syntaxin4A(1–274)-C141S/E257C/I261C-SNAP23; source: E. coli BL21(DE3), coexpressed, purified (Ni-NTA, Superdex 200); copies: + +
T1 sequence (looked up) 1: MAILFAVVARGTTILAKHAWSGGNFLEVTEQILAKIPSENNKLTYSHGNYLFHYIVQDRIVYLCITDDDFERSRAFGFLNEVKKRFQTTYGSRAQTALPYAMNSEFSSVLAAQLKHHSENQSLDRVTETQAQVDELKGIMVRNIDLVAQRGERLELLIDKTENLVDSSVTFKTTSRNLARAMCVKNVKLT
T1 sequence (looked up) 2: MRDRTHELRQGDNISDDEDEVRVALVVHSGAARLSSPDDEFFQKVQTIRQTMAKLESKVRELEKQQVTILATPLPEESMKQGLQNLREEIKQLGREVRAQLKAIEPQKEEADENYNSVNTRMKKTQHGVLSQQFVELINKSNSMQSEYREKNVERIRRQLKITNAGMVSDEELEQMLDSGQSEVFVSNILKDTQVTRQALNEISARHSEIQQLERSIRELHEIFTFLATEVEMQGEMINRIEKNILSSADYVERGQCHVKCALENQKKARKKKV
T1 sequence (looked up) 3: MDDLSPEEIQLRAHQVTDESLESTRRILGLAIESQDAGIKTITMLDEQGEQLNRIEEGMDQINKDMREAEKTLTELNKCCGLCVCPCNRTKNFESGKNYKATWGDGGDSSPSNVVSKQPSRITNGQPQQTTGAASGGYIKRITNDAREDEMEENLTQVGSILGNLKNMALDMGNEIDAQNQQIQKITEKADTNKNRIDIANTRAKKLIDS

[3] = molecular target: T2, VAMP8-syntaxin4-SNAP23 ternary SNARE complex, labeled with Oregon Green 488 (rat, UniProt Q9WUF4 1-76; Q08850 1-274; O70377 1-210, I76C | C141S | E257C | I261C, Oregon Green 488 (maleimide) on cysteines; the labeled endogenous and mutant cysteines are shown in Figure 1A | Oregon Green 488 (maleimide) on cysteines; the labeled endogenous and mutant cysteines …); details: both partners purified
T2 construct: VAMP8 (endobrevin), rat, residues 1-76; syntaxin4A, rat, residues 1-274; tag-free; SNAP23, rat; Removal of the His6 tag is told only for α-SNAP; also called VAMP8(1–76)-I76C-syntaxin4A(1–274)-C141S/E257C/I261C-SNAP23; source: E. coli BL21(DE3), coexpressed, purified (Ni-NTA, Superdex 200); copies: + +
T2 sequence (looked up) 1: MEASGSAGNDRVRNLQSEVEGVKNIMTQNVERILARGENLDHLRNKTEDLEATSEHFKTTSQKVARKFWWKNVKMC
T2 sequence (looked up) 2: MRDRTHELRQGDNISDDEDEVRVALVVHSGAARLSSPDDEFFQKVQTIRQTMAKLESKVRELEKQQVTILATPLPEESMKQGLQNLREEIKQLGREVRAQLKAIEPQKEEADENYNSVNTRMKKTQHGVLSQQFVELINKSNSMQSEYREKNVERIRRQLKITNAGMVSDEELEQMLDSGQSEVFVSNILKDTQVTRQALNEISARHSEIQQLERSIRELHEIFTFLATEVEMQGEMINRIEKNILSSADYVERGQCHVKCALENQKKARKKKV
T2 sequence (looked up) 3: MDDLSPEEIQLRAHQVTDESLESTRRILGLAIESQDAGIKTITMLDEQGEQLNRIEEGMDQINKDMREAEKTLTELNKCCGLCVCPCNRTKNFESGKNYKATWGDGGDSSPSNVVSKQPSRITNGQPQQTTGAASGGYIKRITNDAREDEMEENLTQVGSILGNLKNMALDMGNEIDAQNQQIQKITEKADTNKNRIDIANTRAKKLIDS

B1: α-soluble NSF attachment protein (α-SNAP) (natural protein, rat, UniProt P54921 1-295, looked up)
chain: MDTSGKQAEAMALLAEAERKVKNSQSFFSGLFGGSSKIEEACEIYARAANMFKMAKNWSAAGNAFCQAAQLHLQLQSKHDAATCFVDAGNAFKKADPQEAINCLMRAIEIYTDMGRFTIAAKHHISIAEIYETELVDVEKAIAHYEQSADYYKGEESNSSANKCLLKVAGYAAQLEQYQKAIDIYEQVGTSAMDSPLLKYSAKDYFFKAALCHFCIDMLNAKLAVQKYEELFPAFSDSRECKLMKKLLEAHEEQNVDSYTESVKEYDSISRLDQWLTTMLLRIKKTIQGDEEDLR
notes: α-SNAP, rat; His6 tag removed with tobacco etch virus protease; source: E. coli BL21(DE3), purified (Ni-NTA, Superdex 200)
Kd [1]: 200 to 600 nM
binding result [2]: binds
binding result [3]: binds
